Assay results taken from patent EP4674868A1 (Jiangsu Hengrui Pharmaceuticals Co., Ltd., dated 2026).
Where two headings read alike, the source gives them in different places.

Assays:
[1] = biological target: T1, human 4-1BB on the surface of HEK293 cells (HEK293-Hu4-1BB) (human, UniProt Q07011 24-255); assay: FACS, HEK293-Hu4-1BB cells
T1 construct: whole, on cells; also called CD137; cell strain highly expressing human 4-1BB

[2] = biological target: T1, human 4-1BB on the surface of HEK293 …; assay: FACS, HEK293-Hu4-1BB cells; remark: listed apart in the source
[3] = biological target: T1, human 4-1BB on the surface of HEK293 …; assay: cell-based or functional assay
[4] = biological target: T2, human CD40 on the surface of HEK293 cells (HEK293-HuCD40) (human, UniProt P25942 21-277); assay: FACS, HEK293-HuCD40 cells
T2 construct: whole, on cells; Also used as the target of the CD40/NF-κB reporter assays in HEK-Blue CD40L cells; also called cell strain highly expressing human CD40; CD40 of HEK-Blue CD40L reporter cells

[5] = biological target: T2, human CD40 on the surface of HEK293 …; assay: cell-based or functional assay
[6] = biological target: T3, human FAP on the surface of CHO-K1 cells (CHO-K1-HuFAP) (human, UniProt Q12884 1-760); assay: FACS, CHO-K1-HuFAP cells
T3 construct: whole, on cells; also called CHO cell line overexpressing human FAP; FAP on the surface of CHO-K1-HuFAP cells

[7] = biological target: T2, human CD40 on the surface of HEK293 …; assay: cell-based or functional assay; remark: listed apart in the source
[8] = biological target: T1, human 4-1BB on the surface of HEK293 …; assay: cell-based or functional assay; remark: listed apart in the source
[9] = biological target: T1, human 4-1BB on the surface of HEK293 …; assay: cell-based or functional assay; remark: listed apart in the source
[10] = biological target: T1, human 4-1BB on the surface of HEK293 …; assay: FACS, HEK293-Hu4-1BB cells; remark: listed apart in the source
[11] = biological target: T3, human FAP on the surface of CHO-K1 …; assay: FACS, CHO-K1-HuFAP cells; remark: listed apart in the source
[12] = biological target: T2, human CD40 on the surface of HEK293 …; assay: FACS, HEK293-HuCD40 cells; remark: listed apart in the source
[13] = biological target: T3, human FAP on the surface of CHO-K1 …; assay: FACS, CHO-K1-HuFAP cells; remark: listed apart in the source
[14] = biological target: T2, human CD40 on the surface of HEK293 …; assay: FACS, HEK293-HuCD40 cells; remark: listed apart in the source

B1: RO7122290 (FAP/4-1BBL bispecific antibody molecule, control) (bispecific antibody, human IgG1, kappa, L234A L235A)
heavy 1: not shown
heavy 2: EVQLLESGGGLVQPGGSLRLSCAASGFTFSSYAMSWVRQAPGKGLEWVSAIIGSGASTYYADSVKGRFTISRDNSKNTLYLQMNSLRAEDTAVYYCAKGWFGGFNYWGQGTLVTVSSASTKGPSVFPLAPSSKSTSGGTAALGCLVKDYFPEPVTVSWNSGALTSGVHTFPAVLQSSGLYSLSSVVTVPSSSLGTQTYICNVNHKPSNTKVDKKVEPKSCDKTHTCPPCPAPEAAGGPSVFLFPPKPKDTLMISRTPEVTCVVVDVSHEDPEVKFNWYVDGVEVHNAKTKPREEQYNSTYRVVSVLTVLHQDWLNGKEYKCKVSNKALGAPIEKTISKAKGQPREPQVCTLPPSRDELTKNQVSLSCAVKGFYPSDIAVEWESNGQPENNYKTTPPVLDSDGSFFLVSKLTVDKSRWQQGNVFSCSVMHEALHNHYTQKSLSLSPGK
light 1: not shown
light 2: EIVLTQSPGTLSLSPGERATLSCRASQSVTSSYLAWYQQKPGQAPRLLINVGSRRATGIPDRFSGSGSGTDFTLTISRLEPEDFAVYYCQQGIMLPPTFGQGTKVEIKRTVAAPSVFIFPPSDEQLKSGTASVVCLLNNFYPREAKVQWKVDNALQSGNSQESVTEQDSKDSTYSLSSTLTLSKADYEKHKVYACEVTHQGLSSPVTKSFNRGEC
EC50 [1]: 0.67 nM
Maximum fluorescence value [1]: 8200
Maximum fluorescence value [2]: 10800
4-1BB/NF-κB luciferase reporter, CD40-crosslinked, Fold change in Emax [3]: 1.77 fold
4-1BB/NF-κB luciferase reporter, FAP-crosslinked, EC50 [3]: 0.04 nM
4-1BB/NF-κB luciferase reporter, FAP-crosslinked, Fold change in Emax [3]: 15.4 fold
4-1BB/NF-κB luciferase reporter, uncrosslinked, Fold change in Emax [3]: 6.03 fold
Maximum fluorescence value [4]: 2330
CD40/NF-κB reporter (HEK-Blue CD40L), 4-1BB-crosslinked, Fold change in Emax [5]: 1 fold
CD40/NF-κB reporter (HEK-Blue CD40L), FAP-crosslinked, Fold change in Emax [5]: 1 fold
CD40/NF-κB reporter (HEK-Blue CD40L), uncrosslinked, Fold change in Emax [5]: 0.98 fold
EC50 [6]: 2.48 nM
Maximum fluorescence value [6]: 44200
CD40/NF-κB reporter (HEK-Blue CD40L), 4-1BB-crosslinked, Fold change in Emax [7]: 1 fold
CD40/NF-κB reporter (HEK-Blue CD40L), FAP-crosslinked, Fold change in Emax [7]: 1 fold
CD40/NF-κB reporter (HEK-Blue CD40L), uncrosslinked, Fold change in Emax [7]: 0.99 fold
4-1BB/NF-κB luciferase reporter, CD40-crosslinked, Fold change in Emax [8]: 2.3 fold
4-1BB/NF-κB luciferase reporter, FAP-crosslinked, EC50 [8]: 0.04 nM
4-1BB/NF-κB luciferase reporter, FAP-crosslinked, Fold change in Emax [8]: 9.95 fold
4-1BB/NF-κB luciferase reporter, uncrosslinked, Fold change in Emax [8]: 5.97 fold
4-1BB/NF-κB luciferase reporter, CD40-crosslinked, Fold change in Emax [9]: 1.22 fold
4-1BB/NF-κB luciferase reporter, FAP-crosslinked, EC50 [9]: 0.032 nM
4-1BB/NF-κB luciferase reporter, FAP-crosslinked, Fold change in Emax [9]: 9.38 fold
4-1BB/NF-κB luciferase reporter, uncrosslinked, Fold change in Emax [9]: 3.6 fold
EC50 [10]: 0.573 nM
Maximum fluorescence value [10]: 8440
EC50 [11]: 1.33 nM
Maximum fluorescence value [11]: 48400
Maximum fluorescence value [12]: 89
EC50 [13]: 1.92 nM
Maximum fluorescence value [13]: 112000
Maximum fluorescence value [14]: 106
